# Reference: patent publication US20240309073A1 (SERUM INSTITUTE OF INDIA PRIVATE, published 2024)
# Legend:
# Test in all cases: cell-based or functional assay
# [1] = target: T1, Dengue virus serotype DV2 (Dengue virus serotype 2 (DV2), UniProt P29990 281-775)
# [2] = target: T2, Dengue virus serotype DV3 (Dengue virus serotype 3 (DV3), UniProt Q6YMS4 281-773)
# [3] = target: T3, Dengue virus serotype DV4 (Dengue virus serotype 4 (DV4), UniProt P09866 280-774)
# [4] = target: T1, Dengue virus serotype DV2; remark: listed apart in the source
# [5] = target: T2, Dengue virus serotype DV3; remark: listed apart in the source
# [6] = target: T3, Dengue virus serotype DV4; remark: listed apart in the source
# [7] = target: T1, Dengue virus serotype DV2; remark: listed apart in the source
# T3 sequence (P09866 280-774 limits assumed): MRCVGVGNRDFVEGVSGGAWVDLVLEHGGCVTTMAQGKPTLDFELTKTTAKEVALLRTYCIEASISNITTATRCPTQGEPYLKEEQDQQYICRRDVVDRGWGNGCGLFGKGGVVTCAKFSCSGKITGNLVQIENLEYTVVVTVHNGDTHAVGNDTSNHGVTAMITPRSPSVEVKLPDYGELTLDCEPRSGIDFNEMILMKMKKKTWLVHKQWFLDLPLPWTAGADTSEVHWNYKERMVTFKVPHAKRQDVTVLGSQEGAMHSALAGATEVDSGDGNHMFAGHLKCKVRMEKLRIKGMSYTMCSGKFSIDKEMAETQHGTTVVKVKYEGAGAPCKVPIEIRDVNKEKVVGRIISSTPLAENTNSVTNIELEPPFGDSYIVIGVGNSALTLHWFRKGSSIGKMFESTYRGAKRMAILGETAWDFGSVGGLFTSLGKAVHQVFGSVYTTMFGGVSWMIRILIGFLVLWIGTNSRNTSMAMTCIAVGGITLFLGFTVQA
binder,measurement,setting,value
"Dengue (VIS513) Monoclonal antibody (antibody, human IgG1, kappa, V domains shown) VH: QVQLVQSGAEVKKPGASVKVSCKAGFNIKDVYMSWVRQAPEQGLEWMGRIDPENGDTKYDPKLQGRVTMTADTSTNTAYMELRSLRSDDTAVYYCARGWEGFAYWGQGTLVTVSS VL: DIVMTQSPASLAVSLGERATISCRASENVDKYGNSFMHWYQQKPGQPPKLLIYRASELQWGVPDRFSGSGSGTDFTLTISSLQAEDVAVYYCQRSNEVPWTFGQGTKLEIKR","EC50 (ng/ml) by PRNT assay; Batch 1, stored at 2-8° C., 0 day",[1],5.9 ng/mL
same,"EC50 (ng/ml) by PRNT assay; Batch 1, stored at 2-8° C., 3 months",[1],8.03 ng/mL
same,"EC50 (ng/ml) by PRNT assay; Batch 1, stored at 2-8° C., 6 months",[1],3.58 ng/mL
same,"EC50 (ng/ml) by PRNT assay; Batch 1, stored at 2-8° C., 9 months",[1],3.31 ng/mL
same,"EC50 (ng/ml) by PRNT assay; Batch 2, stored at 2-8° C., 0 day",[1],3.26 ng/mL
same,"EC50 (ng/ml) by PRNT assay; Batch 2, stored at 2-8° C., 3 months",[1],5.69 ng/mL
same,"EC50 (ng/ml) by PRNT assay; Batch 2, stored at 2-8° C., 6 months",[1],4.15 ng/mL
same,"EC50 (ng/ml) by PRNT assay; Batch 2, stored at 2-8° C., 9 months",[1],2.87 ng/mL
same,"EC50 (ng/ml) by PRNT assay; Batch 1, stored at 2-8° C., 0 day",[2],14.4 ng/mL
same,"EC50 (ng/ml) by PRNT assay; Batch 1, stored at 2-8° C., 3 months",[2],14.7 ng/mL
same,"EC50 (ng/ml) by PRNT assay; Batch 1, stored at 2-8° C., 6 months",[2],5.58 ng/mL
same,"EC50 (ng/ml) by PRNT assay; Batch 1, stored at 2-8° C., 9 months",[2],4.57 ng/mL
same,"EC50 (ng/ml) by PRNT assay; Batch 2, stored at 2-8° C., 0 day",[2],13.2 ng/mL
same,"EC50 (ng/ml) by PRNT assay; Batch 2, stored at 2-8° C., 6 months",[2],6.53 ng/mL
same,"EC50 (ng/ml) by PRNT assay; Batch 2, stored at 2-8° C., 9 months",[2],7.05 ng/mL
same,"EC50 (ng/ml) by PRNT assay; Batch 1, stored at 2-8° C., 0 day",[3],30.3 ng/mL
same,"EC50 (ng/ml) by PRNT assay; Batch 1, stored at 2-8° C., 3 months",[3],50.8 ng/mL
same,"EC50 (ng/ml) by PRNT assay; Batch 1, stored at 2-8° C., 6 months",[3],24 ng/mL
same,"EC50 (ng/ml) by PRNT assay; Batch 1, stored at 2-8° C., 9 months",[3],23.4 ng/mL
same,"EC50 (ng/ml) by PRNT assay; Batch 2, stored at 2-8° C., 0 day",[3],22.5 ng/mL
same,"EC50 (ng/ml) by PRNT assay; Batch 2, stored at 2-8° C., 3 months",[3],22.4 ng/mL
same,"EC50 (ng/ml) by PRNT assay; Batch 2, stored at 2-8° C., 6 months",[3],16.6 ng/mL
same,"EC50 (ng/ml) by PRNT assay; Batch 2, stored at 2-8° C., 9 months",[3],19.6 ng/mL
same,"EC50 (ng/ml) by PRNT assay; Batch 1, stored at 25° C., 0 day",[4],5.9 ng/mL
same,"EC50 (ng/ml) by PRNT assay; Batch 1, stored at 25° C., 30 days",[4],5.6 ng/mL
same,"EC50 (ng/ml) by PRNT assay; Batch 2, stored at 25° C., 0 day",[4],3.26 ng/mL
same,"EC50 (ng/ml) by PRNT assay; Batch 2, stored at 25° C., 30 days",[4],5.51 ng/mL
same,"EC50 (ng/ml) by PRNT assay; Batch 1, stored at 25° C., 0 day",[5],14.4 ng/mL
same,"EC50 (ng/ml) by PRNT assay; Batch 1, stored at 25° C., 30 days",[5],9.63 ng/mL
same,"EC50 (ng/ml) by PRNT assay; Batch 2, stored at 25° C., 0 day",[5],13.2 ng/mL
same,"EC50 (ng/ml) by PRNT assay; Batch 2, stored at 25° C., 30 days",[5],9.25 ng/mL
same,"EC50 (ng/ml) by PRNT assay; Batch 1, stored at 25° C., 0 day",[6],30.3 ng/mL
same,"EC50 (ng/ml) by PRNT assay; Batch 1, stored at 25° C., 30 days",[6],35.3 ng/mL
same,"EC50 (ng/ml) by PRNT assay; Batch 2, stored at 25° C., 0 day",[6],22.5 ng/mL
same,"EC50 (ng/ml) by PRNT assay; Batch 2, stored at 25° C., 30 days",[6],30.7 ng/mL
same,"EC50 (ng/ml) by PRNT assay; Batch 1, 40° C. study, Control, 0 day",[7],6.66 ng/mL
same,"EC50 (ng/ml) by PRNT assay; Batch 1, 40° C. study, Control, 7 days",[7],6.37 ng/mL
same,"EC50 (ng/ml) by PRNT assay; Batch 1, 40° C. study, Control, 14 days",[7],6.18 ng/mL
same,"EC50 (ng/ml) by PRNT assay; Batch 1, stored at 40° C., Test, 7 days",[7],26.9 ng/mL
same,"EC50 (ng/ml) by PRNT assay; Batch 1, stored at 40° C., Test, 14 days",[7],36.1 ng/mL
